Results from article PMC6392469 (Cellular signalling, 2018).
Non-standard residues stand in square brackets, D forms with d. No end group written: not given here. fluorescein = fluorescein-6-aminohexanoyl label; pY = N[C@@H](Cc1ccc(OP(=O)(O)O)cc1)C(=O)O; Ahx = NCCCCCC(=O)O

Key:
[1] = target: T1, C1-Ten SH2 domain (C1-Ten/Tensin2) (Homo sapiens, UniProt Q63HR2, K1142Q/K1155Q/K1157Q); test: equilibrium SPR, L1 chip with lipid vesicles; type: binding
T1 sequence (Q63HR2 1120-1253 K1142Q/K1155Q/K1157Q): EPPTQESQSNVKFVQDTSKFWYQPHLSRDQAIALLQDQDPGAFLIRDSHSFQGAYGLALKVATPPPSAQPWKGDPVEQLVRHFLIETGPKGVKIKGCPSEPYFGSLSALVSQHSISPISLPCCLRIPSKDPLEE

[2] = target: T2, C1-Ten SH2 domain (C1-Ten/Tensin2) (Homo sapiens, UniProt Q63HR2); test: equilibrium SPR, L1 chip with lipid vesicles; type: binding
T2 sequence (Q63HR2 1120-1253): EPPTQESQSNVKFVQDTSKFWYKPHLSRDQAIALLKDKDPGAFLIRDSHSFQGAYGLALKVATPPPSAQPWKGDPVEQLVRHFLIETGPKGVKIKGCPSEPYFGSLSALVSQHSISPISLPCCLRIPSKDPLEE

[3] = target: T3, C1-Ten/Tensin2 SH2 domain, wild type (UniProt Q63HR2 1120-1253); test: fluorescence polarisation
T3 sequence (looked up): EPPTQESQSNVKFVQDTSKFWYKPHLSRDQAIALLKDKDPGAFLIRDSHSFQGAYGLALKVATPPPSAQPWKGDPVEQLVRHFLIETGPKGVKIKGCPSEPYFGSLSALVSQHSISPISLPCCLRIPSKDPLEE

[4] = target: T4, C1-Ten/Tensin2 SH2 domain R1165A (UniProt Q63HR2 1120-1253, R1165A); test: fluorescence polarisation
T4 sequence (looked up): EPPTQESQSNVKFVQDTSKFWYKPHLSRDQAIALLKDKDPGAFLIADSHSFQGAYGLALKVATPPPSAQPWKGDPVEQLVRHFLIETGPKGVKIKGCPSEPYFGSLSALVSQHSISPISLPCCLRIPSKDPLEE

[5] = target: T5, C1-Ten/Tensin2 SH2 domain K1142Q/K1155Q/K1157Q (UniProt Q63HR2 1120-1253, K1142Q | K1155Q | K1157Q); test: fluorescence polarisation
T5 sequence (looked up): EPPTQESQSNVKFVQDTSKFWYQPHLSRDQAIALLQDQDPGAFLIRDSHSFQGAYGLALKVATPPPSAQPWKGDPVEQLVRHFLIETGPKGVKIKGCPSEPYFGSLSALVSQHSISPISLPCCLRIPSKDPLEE

## CCCCCCCCCCCCCCCC(=O)OC[C@H](COP(=O)(O)O[C@H]1[C@H](O)[C@@H](OP(=O)(O)O)[C@H](OP(=O)(O)O)[C@@H](OP(=O)(O)O)[C@H]1O)OC(=O)CCCCCCCCCCCCCCC [PtdIns(3,4,5)P3]
[1]
  Kd: 1.26 ± 0.128 µM
[2]
  Kd: 0.26 ± 0.04 µM

## {fluorescein-Ahx}-NE[pY]DNV [F-Ahx-NEpYDNV, fluorescein-6-aminohexanoyl-labeled pY-containing peptide]
[3]
  Kd: 2.5 ± 1.3 µM
[4]
  Kd: 90.9 ± 11.4 µM
[5]
  Kd: 3.6 ± 1.4 µM
